Legend:
[1] = target: human ErbB2 on BT474 human breast tumor cells (human) (UniProt P04626); assay: Scatchard analysis, 125I-labelled antibody on BT474 cell monolayers, 4 hours on ice
[2] = target: human ErbB2 on BT474 human breast tumor cells (human) (UniProt P04626); assay: cell-based or functional assay

Q: What does the source list for “anti-ErbB2 IgG1κ murine monoclonal antibody 4D5”?
A: Kd [1]: 6.5 nM; % apoptosis of the BT474 cell population [2]: 41.9%; proportion of S-phase cells (BT474) [2]: 5.4%

Q: How did the % apoptosis of the BT474 cell population [2] turn out when “anti-ErbB2 IgG1κ murine monoclonal antibody 7C2” was run?
A: 60.5%

Q: And the proportion of S-phase cells (BT474) [2]?
A: 64.9%
